Assays:
[1] = target: Nanoluc_DDB1 (N-terminal Nanoluc luciferase, G4S linker, DDB1 (FL)) (UniProt Q16531); assay: NanoBRET in HEK293T cells, 10 µM compound Example 3-20; class C = 2-3 fold increase
[2] = target: Nanoluc_DDB1 (N-terminal Nanoluc luciferase, G4S linker, DDB1 (FL)) (UniProt Q16531); assay: NanoBRET in HEK293T cells, 10 µM compound Example 3-27; class B = 3-4 fold increase
[3] = target: Nanoluc_DDB1 (N-terminal Nanoluc luciferase, G4S linker, DDB1 (FL)) (UniProt Q16531); assay: NanoBRET in HEK293T cells, 10 µM compound Example 3-31; class C = 2-3 fold increase
[4] = target: Nanoluc_DDB1 (N-terminal Nanoluc luciferase, G4S linker, DDB1 (FL)) (UniProt Q16531); assay: NanoBRET in HEK293T cells, 10 µM compound Example 3-32; class B = 3-4 fold increase
[5] = target: Nanoluc_DDB1 (N-terminal Nanoluc luciferase, G4S linker, DDB1 (FL)) (UniProt Q16531); assay: NanoBRET in HEK293T cells, 10 µM compound Example 3-34; class C = 2-3 fold increase
[6] = target: Nanoluc_DDB1 (N-terminal Nanoluc luciferase, G4S linker, DDB1 (FL)) (UniProt Q16531); assay: NanoBRET in HEK293T cells, 10 µM compound Example 3-36; class C = 2-3 fold increase
[7] = target: Nanoluc_DDB1 (N-terminal Nanoluc luciferase, G4S linker, DDB1 (FL)) (UniProt Q16531); assay: NanoBRET in HEK293T cells, 10 µM compound Example 3-49; class B = 3-4 fold increase
[8] = target: Nanoluc_DDB1 (N-terminal Nanoluc luciferase, G4S linker, DDB1 (FL)) (UniProt Q16531); assay: NanoBRET in HEK293T cells, 10 µM compound Example 3-54; class C = 2-3 fold increase
[9] = target: Nanoluc_DDB1 (N-terminal Nanoluc luciferase, G4S linker, DDB1 (FL)) (UniProt Q16531); assay: NanoBRET in HEK293T cells, 10 µM compound Example 3-59; class C = 2-3 fold increase
[10] = target: Nanoluc_DDB1 (N-terminal Nanoluc luciferase, G4S linker, DDB1 (FL)) (UniProt Q16531); assay: NanoBRET in HEK293T cells, 10 µM compound Example 3-60; class C = 2-3 fold increase
[11] = target: Nanoluc_DDB1 (N-terminal Nanoluc luciferase, G4S linker, DDB1 (FL)) (UniProt Q16531); assay: NanoBRET in HEK293T cells, 10 µM compound Example 3-63; class B = 3-4 fold increase
[12] = target: Nanoluc_DDB1 (N-terminal Nanoluc luciferase, G4S linker, DDB1 (FL)) (UniProt Q16531); assay: NanoBRET in HEK293T cells, 10-point titration of compound Example 3-63; class E = >10 µM
[13] = target: Nanoluc_DDB1 (N-terminal Nanoluc luciferase, G4S linker, DDB1 (FL)) (UniProt Q16531); assay: NanoBRET in HEK293T cells, 10-point titration of compound Example 3-64; class E = >10 µM
[14] = target: Nanoluc_DDB1 (N-terminal Nanoluc luciferase, G4S linker, DDB1 (FL)) (UniProt Q16531); assay: NanoBRET in HEK293T cells, 10 µM compound Example 3-33; class A = greater than 4-fold increase
[15] = target: Nanoluc_DDB1 (N-terminal Nanoluc luciferase, G4S linker, DDB1 (FL)) (UniProt Q16531); assay: NanoBRET in HEK293T cells, 10 µM compound Example 3-35; class A = greater than 4-fold increase
[16] = target: Nanoluc_DDB1 (N-terminal Nanoluc luciferase, G4S linker, DDB1 (FL)) (UniProt Q16531); assay: NanoBRET in HEK293T cells, 10 µM compound Example 3-45; class A = greater than 4-fold increase
[17] = target: Nanoluc_DDB1 (N-terminal Nanoluc luciferase, G4S linker, DDB1 (FL)) (UniProt Q16531); assay: NanoBRET in HEK293T cells, 10 µM compound Example 3-62; class A = greater than 4-fold increase
[18] = target: Nanoluc_DDB1 (N-terminal Nanoluc luciferase, G4S linker, DDB1 (FL)) (UniProt Q16531); assay: NanoBRET in HEK293T cells, 10 µM compound Example 3-64; class A = greater than 4-fold increase
[19] = target: Nanoluc_DDB1 (N-terminal Nanoluc luciferase, G4S linker, DDB1 (FL)) (UniProt Q16531); assay: NanoBRET in HEK293T cells, 10 µM compound Example 3-66; class A = greater than 4-fold increase
[20] = target: Nanoluc_DDB1 (N-terminal Nanoluc luciferase, G4S linker, DDB1 (FL)) (UniProt Q16531); assay: NanoBRET in HEK293T cells, 10-point titration of compound Example 3-4; class A = EC50<=0.25 µM
[21] = target: Nanoluc_DDB1 (N-terminal Nanoluc luciferase, G4S linker, DDB1 (FL)) (UniProt Q16531); assay: NanoBRET in HEK293T cells, 10-point titration of compound Example 3-43; class A = EC50<=0.25 µM
[22] = target: Nanoluc_DDB1 (N-terminal Nanoluc luciferase, G4S linker, DDB1 (FL)) (UniProt Q16531); assay: NanoBRET in HEK293T cells, 10-point titration of compound Example 3-50; class A = EC50<=0.25 µM
[23] = target: Nanoluc_DDB1 (N-terminal Nanoluc luciferase, G4S linker, DDB1 (FL)) (UniProt Q16531); assay: NanoBRET in HEK293T cells, 10-point titration of compound Example 3-52; class A = EC50<=0.25 µM
[24] = target: Nanoluc_DDB1 (N-terminal Nanoluc luciferase, G4S linker, DDB1 (FL)) (UniProt Q16531); assay: NanoBRET in HEK293T cells, 10-point titration of compound Example 3-62; class A = EC50<=0.25 µM
[25] = target: Nanoluc_DDB1 (N-terminal Nanoluc luciferase, G4S linker, DDB1 (FL)) (UniProt Q16531); assay: NanoBRET in HEK293T cells, 10-point titration of compound Example 3-66; class A = EC50<=0.25 µM

Nanoluc_DDB1 (N-terminal Nanoluc luciferase, G4S linker, DDB1 (FL)), sequence (Q16531 other isoform, or with tags, fused parts or gaps): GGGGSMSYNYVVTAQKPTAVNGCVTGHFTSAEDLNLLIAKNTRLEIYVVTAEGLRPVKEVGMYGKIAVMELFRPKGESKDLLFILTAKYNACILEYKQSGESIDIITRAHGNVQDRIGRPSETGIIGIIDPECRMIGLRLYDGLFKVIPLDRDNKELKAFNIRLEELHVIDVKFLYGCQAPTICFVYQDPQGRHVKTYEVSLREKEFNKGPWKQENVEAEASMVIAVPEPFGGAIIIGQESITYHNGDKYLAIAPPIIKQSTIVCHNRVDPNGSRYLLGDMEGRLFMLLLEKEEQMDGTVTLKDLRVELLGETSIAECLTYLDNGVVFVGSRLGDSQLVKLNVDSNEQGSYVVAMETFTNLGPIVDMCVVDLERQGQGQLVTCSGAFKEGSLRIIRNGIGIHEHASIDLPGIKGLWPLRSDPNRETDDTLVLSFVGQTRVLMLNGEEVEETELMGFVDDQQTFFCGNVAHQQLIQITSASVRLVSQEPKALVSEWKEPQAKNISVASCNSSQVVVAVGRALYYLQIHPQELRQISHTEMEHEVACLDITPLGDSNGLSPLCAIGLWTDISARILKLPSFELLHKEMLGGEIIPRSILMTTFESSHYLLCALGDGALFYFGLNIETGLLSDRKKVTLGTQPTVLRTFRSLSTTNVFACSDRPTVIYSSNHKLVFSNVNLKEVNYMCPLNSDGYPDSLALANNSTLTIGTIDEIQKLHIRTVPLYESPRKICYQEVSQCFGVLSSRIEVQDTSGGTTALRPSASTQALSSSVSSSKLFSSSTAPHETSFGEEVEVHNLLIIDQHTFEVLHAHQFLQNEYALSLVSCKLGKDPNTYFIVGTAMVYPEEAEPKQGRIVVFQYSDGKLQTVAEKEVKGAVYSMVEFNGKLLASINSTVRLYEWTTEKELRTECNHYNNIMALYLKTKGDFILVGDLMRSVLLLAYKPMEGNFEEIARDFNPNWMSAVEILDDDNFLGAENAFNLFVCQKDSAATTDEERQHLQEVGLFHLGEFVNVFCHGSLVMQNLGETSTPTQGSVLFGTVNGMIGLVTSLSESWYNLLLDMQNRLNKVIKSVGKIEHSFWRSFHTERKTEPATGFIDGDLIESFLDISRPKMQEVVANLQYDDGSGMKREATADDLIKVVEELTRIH

- NanoBRET fold increase [1]: 2 to 3 fold
- NanoBRET fold increase [2]: 3 to 4 fold
- NanoBRET fold increase [3]: 2 to 3 fold
- NanoBRET fold increase [4]: 3 to 4 fold
- NanoBRET fold increase [5]: 2 to 3 fold
- NanoBRET fold increase [6]: 2 to 3 fold
- NanoBRET fold increase [7]: 3 to 4 fold
- NanoBRET fold increase [8]: 2 to 3 fold
- NanoBRET fold increase [9]: 2 to 3 fold
- NanoBRET fold increase [10]: 2 to 3 fold
- NanoBRET fold increase [11]: 3 to 4 fold
- EC50 [12]: > 10000 nM
- EC50 [13]: > 10000 nM
- NanoBRET fold increase [14]: > 4 fold
- NanoBRET fold increase [15]: > 4 fold
- NanoBRET fold increase [16]: > 4 fold
- NanoBRET fold increase [17]: > 4 fold
- NanoBRET fold increase [18]: > 4 fold
- NanoBRET fold increase [19]: > 4 fold
- EC50 [20]: < 250 nM
- EC50 [21]: < 250 nM
- EC50 [22]: < 250 nM
- EC50 [23]: < 250 nM
- EC50 [24]: < 250 nM
- EC50 [25]: < 250 nM
Substance: HaloTag_CDK12 (N-terminal HaloTag, G4S linker, CDK12 (713-1052)) (from UniProt Q9NYV4 713-1052) (enzyme)
